The target in the assay is TLR2 (human (endogenous in BEAS-2B)) (UniProt O60603).
Chain of UniProt O60603 (O60603 21-784): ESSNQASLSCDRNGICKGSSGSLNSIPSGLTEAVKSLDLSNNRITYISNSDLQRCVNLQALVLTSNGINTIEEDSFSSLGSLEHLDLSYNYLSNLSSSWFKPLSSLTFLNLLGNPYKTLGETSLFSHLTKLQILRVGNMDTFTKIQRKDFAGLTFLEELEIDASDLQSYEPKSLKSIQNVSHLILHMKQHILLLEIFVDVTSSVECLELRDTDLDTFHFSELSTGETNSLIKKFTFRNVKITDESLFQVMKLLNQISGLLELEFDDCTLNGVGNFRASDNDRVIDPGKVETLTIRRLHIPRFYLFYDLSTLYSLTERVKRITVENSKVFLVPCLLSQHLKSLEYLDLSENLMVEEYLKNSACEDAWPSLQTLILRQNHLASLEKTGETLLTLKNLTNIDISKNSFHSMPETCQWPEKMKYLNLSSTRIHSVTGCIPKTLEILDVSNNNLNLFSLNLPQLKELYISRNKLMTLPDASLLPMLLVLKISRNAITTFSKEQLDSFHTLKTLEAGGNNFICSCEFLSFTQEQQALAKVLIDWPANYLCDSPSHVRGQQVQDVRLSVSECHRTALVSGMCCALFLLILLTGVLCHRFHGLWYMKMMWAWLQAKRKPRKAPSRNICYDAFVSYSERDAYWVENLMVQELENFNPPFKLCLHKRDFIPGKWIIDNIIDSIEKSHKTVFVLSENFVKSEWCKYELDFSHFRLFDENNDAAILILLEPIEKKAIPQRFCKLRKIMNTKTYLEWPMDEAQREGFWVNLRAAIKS

In turn, Der p 2.0110 S47W (natural protein) registered an IL-8 release from BEAS-2B cells, allergen at 25 µg/mL, 24 hours of 157 pg/mL.

For “recombinant Der p 2 variant 2.0110 (from UniProt P49278 18-146) (natural protein)”, the IL-8 release from BEAS-2B cells, allergen at 25 µg/mL, 24 hours came to 310 pg/mL.

Source of the values: publication PMC6267192.
